{"source": "the supplement of paper PMC9170038"}
{"tested_on": "MS2 coat protein", "test": "apparent KD of MS2 coat protein; higher = weaker reporter binding", "conditions": "Eterna round: R107; input ligand: arginine 13.2 mM", "method_in_brief": "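With or without constant ligand, designed RNA switches in 100 mM Tris-HCl pH 7.5, 80 mM KCl and 4 mM MgCl2 were titrated with SNAP-549-labelled MS2 coat protein. Concentrations went up in twofold steps from 0.7 or 1.5 nM to 3 µM. The switches had been transcribed on-chip from Illumina sequencing clusters, and apparent KD is the per-design median of normalised cluster binding-curve fits.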", "units": {"apparent KD of MS2 coat protein": "nM"}}
{"sequence": "UGUAUGUGAUCUGAUACCAGUCCAACUGGUAAAAUAUGAGGAUCACCCAUAUAAAAUUGGGACCCUUGGCAGCAGAUCGCAUACU", "apparent KD of MS2 coat protein": 108}
{"sequence": "CAGCAACAAUUGGAUACCAGCCAUUACAGGUAUCAUUAUAACAUGAGGAUCACCCAUGUAGGCCCUUGGCAGCCAUUGGUGUAAG [theeternabot_exclusion_MS2_Theo_B_22]", "apparent KD of MS2 coat protein": 27.5}
{"sequence": "UGAUCCUACAGAGAUACCAGUGCCACUGAGUGACCAGACACAUGAGGAUCACCCAUGUAACACCCUUGGCAGCUCAACUAGAGGG [Same State Theophylline B GF18]", "apparent KD of MS2 coat protein": 16.8}
{"sequence": "ACCGAAAGCUCACAUGAGGAUCACCCAUGUCGAGGACCGGUACGGCCGCCACUCGGCAAAUAUAAGGGUGGACGCGUCUCUGCGU [Soramasoso]", "apparent KD of MS2 coat protein": 35.4}
{"sequence": "ACAUGAGGAUCACCCAUGUUCCUCAUUGAUACCAGUGAAUUUAGACGCCCUUGGCAGCGAGUUUUUUUAUAAGAAGUUUUUUUUU [6.G]", "apparent KD of MS2 coat protein": 280}
{"sequence": "AAUUCAAUUUUCUUGAUGUAUUAUAUAUUUCGAGGACCGGUACGGCCGCCACUCGUUAAUUACAUGAGGAUCACCCAUGUUAGCU [JR_ExcTryptoA_Sub009]", "apparent KD of MS2 coat protein": 13.6}
{"sequence": "GCGUACGAUCGGGAUACCAGACAUUGCCGUUAGGGUGAACCUGAGGAACACCCAGGUUUUGUCCCUUGGCAGCCCGAUCGUACGC [ETB NP+V+V2 #8 Diff Apt, Same Structure]", "apparent KD of MS2 coat protein": 20.6}
{"sequence": "GUAGCUAUCGCGGCCGCCACUAAACCGGAAACGGAACAGUAGGAUCACCAUUGUGGCGAAAGCCAUAGGACCGGGCGAUAGCUAC [TryBS - Double Magnet system 2]", "apparent KD of MS2 coat protein": 601}
{"sequence": "UCAUGAGGAUCACCCAUGUGGCGUCUUGAUACCAGACGAGAAGUAGUCCCUUGGCAGCAAAUACAUGAGGAUCACCCAUGUAGGA [cccmullin2]", "apparent KD of MS2 coat protein": 24.5}
{"sequence": "GCGCGGCGAGUGCGGCGUGUUCCGCUCCGUCGAGGACCGGUACGGCCGCCACUCGACAUGAGGAUCACCCAUGUCGCCGCGCGUC [Exclusion - Tryptophan A Attempt #1]", "apparent KD of MS2 coat protein": 12.6}
{"sequence": "AUCCUCAAGAAUGAUACCAGACCAAACAUGAGGAUCACCCAUGUAUCAGGCAAUUGUUACGUCCCUUGGCAGCAUGUAAGCCGAC [Theo B SS t2]", "apparent KD of MS2 coat protein": 35.5}
{"sequence": "GCCUCCAGCCGAAGGAGCGCUAGAAGGUGACAUGAGGAUCACCCAUGUGUGUGAUGUGGCUAGCAGGUAGGUCGCGGAGGAGGUA [Exclusion - Arginine B (Freestyle 21)]", "apparent KD of MS2 coat protein": 118}
{"sequence": "GUAUGGAAACAUACUUGGGUAUCAUGAGAUACCAGUACAGAAAUGUACCCUUGGCAGCUCAAGCAUACAUGAGGAUCACCCAUGU [Ex Theophylline A 8]", "apparent KD of MS2 coat protein": 22.5}
{"sequence": "CUACAUGUAGUUAAACCGGUCAACAAUAAUCGAGGACCGGUACGGCCGCCACUCGAUGUGUUAUACACAUGAGGAUCACCCAUGU [Tryptophan A 15]", "apparent KD of MS2 coat protein": 23.3}
{"sequence": "ACAUGAGGAUCACCCAUGUUAAGCAGGGUGCGAGGACCGGUACGGCCGCCACUCGGACAUUAUUACGAGUGAAUGGUAACGAUGU [#14 Exclusion Tryptophan A]", "apparent KD of MS2 coat protein": 23.3}
{"sequence": "AGUUAUUUCCGAAGGAGCGUUAUACAUGAGGAUCACCCAUGUACAUGAGGUUCAACAUGAAAACAGGUAGGUCGCGGAUUUUGUC [Exclusion Arginine B4]", "apparent KD of MS2 coat protein": 15.6}
{"sequence": "CUGGCAGGAUUCUCAGCUGUCAGGGCUGAUACCAGCCACGAAAGUGGCCCUUGGCAGCAGCAAACAUGAGGAUCACCCAUGUAAU [(T)''-(M)'-(T)'-(Theo)-(Ms2)_Design1]", "apparent KD of MS2 coat protein": 279}
{"sequence": "UGAUACCAGUCGGCCGCCACUACAUGAGGAUCACCCAUGUAUGGGUCAAUGCUAGAUACUAGCAGUAGGACCGGGACUGGUAUCU", "apparent KD of MS2 coat protein": 11.4}
{"sequence": "AAUGUAUGGCACAUGAGGAUCACCCAUGUGCGAGGACCGGUACGGCCGCCACUCGGUCGGUGGUUAAUGAAGCUAUACAUUAAUG [XTryp A #13]", "apparent KD of MS2 coat protein": 26.8}
{"sequence": "CCAUAGGGUAAAUACAUAAUCAUAUCUGAAGGAGCGUGGAUAAACACAGGUAGGUCGCAGAAUCACAUGAGGAUCACCCAUGUCU [Same State Arginine A GF11]", "apparent KD of MS2 coat protein": 24.5}
{"sequence": "AUUAAUAGUUGUGAUACCAGACGAACAUGAGGAUCACCCAUGUAACUUUUAGGUGUUGUAGUCCCUUGGCAGCACUAUUUAGUUA [JR_SSTheophyB_Sub014]", "apparent KD of MS2 coat protein": 29.3}
{"sequence": "GAUGAACUAUUUGAUACCAGACUACAUGAGGAUCACCCAUGUGUGUUAAUUUUUCAGUCAGUCCCUUGGCAGCAAAUAGUUUAUC [XTheo B #2]", "apparent KD of MS2 coat protein": 42.2}
{"sequence": "UUAUGCAGGUCGGCCGCCACUACACACAUGAGGAUCACCCAUGUAGUUACUGGGUGAAGUGGCAGUAGGACCGGGACCUGCAUAU [Brourdmod05]", "apparent KD of MS2 coat protein": 84.5}
{"sequence": "UCGCCCGGGUCGGCCGCCACUGAGGUAAUAUGACAUGAGGAUCACCCAUGUUGUCAUGUGGAACAUAGGACCGGGACCCGGGCGA [Exclusion - Tryptophan B Attempt #1 (HarryS)]", "apparent KD of MS2 coat protein": 9.15}
{"sequence": "AGUCUGGACUCGGCCGCCACUCGUGAUGCUUUGGCACAUGAGGAUCACCCAUGUGGUCGGCCUUAGAGGACCGGGAGUACCAGCU [Zaraoned]", "apparent KD of MS2 coat protein": 38.6}
{"sequence": "GGGCUGUGACCAGGAAAUGGUCACAGCCCACGAGGACCGGUACGGCCGCCACUCGAAAGUACAUGAGGAUCACCCAUGUCGGUGG [#1 Same State - Tryptophan A Attempt #8 (HarryS)]", "apparent KD of MS2 coat protein": 25.9}
{"sequence": "UGGGUACAUGAGGAUCACCCAUGUACUGAAGGAGCGAGAAAUAACUCAGGUAGGUCGCAGACAUGAGGAUCACCCAUGUAAUAAA [Exclusion Arginine A GF 10]", "apparent KD of MS2 coat protein": 16}
{"sequence": "AUACCUAGUGAGUCGUGUUUCUUUUCAGAUACCAGACUUUUCGUUGUCCCUUGGCAGCUGUUUUACAUGAGGAUCACCCAUGUUG [JR_ExcTheophyA_Sub007]", "apparent KD of MS2 coat protein": 16.1}
{"sequence": "CGGUCGGUCGGCCGGUGAUUAUGGGAUGAAGGAGCGUGGGAAGCUACAGGUAGGUCGCAUCCGAAACACGAGGAUCACCCGUGUU [SSArg A #25Alt-Ms2 Mod]", "apparent KD of MS2 coat protein": 26.5}
{"sequence": "ACCGAGGCAAUGGAUACCAGUGCGCCACAAUCGUGCUUCAACAUGAGGAUCACCCAUGUGCACCCUUGGCAGCCAACGGGCUCAU [theeternabot_exclusion_MS2_Theo_B_19]", "apparent KD of MS2 coat protein": 15}
{"sequence": "UAACAUGAGGAUCACCCAUGUAUAGUCGAUACCAGCUCAAGGAAGAGCCCUUGGCAGCGACACUGCCAAGCAUGGGUCAUGGCAG [(Ms2)-(Theo)-(T)'-(M)'-(T)''_Design5]", "apparent KD of MS2 coat protein": 20.7}
{"sequence": "AGUCGAAACUGAAGGAGCGAGAUGACAACAUUGGGUCUAACAUGAGGAUCACCCAUGUAAUCUCAGGUAGGUCGCAGUAACAAAA [Exclusion Arginine B GF 16]", "apparent KD of MS2 coat protein": 172}
{"sequence": "GUACAUGAGGAUCACCCAUGUAUAGUUGAAGGAGCGACCGGUGGGUCAGGUAGGUCGCAGCGCAUGGCGUCCACGCGUGUAUGCC [#1 Exclusion - Arginine A Attempt #29 (Inspired by Pi)]", "apparent KD of MS2 coat protein": 10.3}
{"sequence": "AACUGGACCAGUGAUACCAGAGACAUGAGGAUCACCCAUGUACAUGAGGAUCACCCAUGUCUCCCUUGGCAGCACAGCAGGGAGC [Exclusion Theophylline B Gf12]", "apparent KD of MS2 coat protein": 66}
{"sequence": "UAAUAAUCCAGGGUGUAGGUAAUAACAGAUACCAGCCAGAUAACUGGCCCUUGGCAGCUGAAAACCUGAGGAUCACCCAGGUAAA [TheoAS 23 #OpenEnded #MS2Late #AlternativeMS2]", "apparent KD of MS2 coat protein": 36.4}
{"sequence": "CUCCGAGGCUAUACUAUCCGCCUCUGUGAUACCAGAAUACCUAUAUUCCCUUGGCAGCAUCACAUGAGGAUCACCCAUGUGCCAU [SSTheo A #13]", "apparent KD of MS2 coat protein": 14.5}
